In article PMC13017698:

Key:
Assay in all cases: SEC
[1] = molecular target: PahZ1_(KT-1), poly(aspartic acid) hydrolase PahZ1 from Sphingomonas sp. KT-1 (Sphingomonas sp. KT-1)
[2] = molecular target: PahZ1_(Spyx), PahZ1 homolog from Sphingopyxis sp. Root1497, residues 21-313 (Sphingopyxis sp. Root1497)
[3] = molecular target: PahZ1Bfg, PahZ1 homolog from Brevifollis gellanilyticus (PahZ1-like domain fused to a CapA-like domain), residues 23-644 (Brevifollis gellanilyticus)

## PahZ1_(KT-1), poly(aspartic acid) hydrolase PahZ1 from Sphingomonas sp. KT-1 (enzyme)
[1]
  stoichiometry N: 2

## PahZ1_(Spyx), PahZ1 homolog from Sphingopyxis sp. Root1497, residues 21-313 (enzyme)
[2]
  stoichiometry N: 2

## PahZ1Bfg, PahZ1 homolog from Brevifollis gellanilyticus (PahZ1-like domain fused to a CapA-like domain), residues 23-644 (enzyme)
[3]
  stoichiometry N: 2
